Test results as given in publication PMC11542177, “Recurrent Neurodevelopmentally Associated Variants of the Pre-mRNA Splicing Factor U2AF2 Alter RNA Binding Affinities and Interactions”.

Columns and labels:
Assay in all cases: fluorescence anisotropy; Fluorescence anisotropy: 25 nM RNA, 100 mM NaCl, 25 mM HEPES pH 6.8, 0.2 mM TCEP; temperature not stated; three replicates
Conditions in all cases: protein: recombinant; label: 5'-fluorescein; single strand
[1] = target: U2AF2 12L WT (UniProt P26368 141-342)
[2] = target: U2AF2 12L Arg150His (UniProt P26368 141-342, R150H)
[3] = target: U2AF2 12L Arg150Cys (UniProt P26368 141-342, R150C)
[4] = target: U2AF2 12L Arg149Trp (UniProt P26368 141-342, R149W)
Sequence of U2AF2 12L Arg149Trp (P26368 141-342 R149W): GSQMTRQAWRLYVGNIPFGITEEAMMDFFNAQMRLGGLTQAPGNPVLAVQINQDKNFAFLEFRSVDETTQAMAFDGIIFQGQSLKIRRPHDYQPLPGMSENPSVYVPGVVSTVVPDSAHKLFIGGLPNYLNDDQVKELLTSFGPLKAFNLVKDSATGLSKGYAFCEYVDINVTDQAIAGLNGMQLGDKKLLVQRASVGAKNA

Sequence of U2AF2 12L Arg150Cys (P26368 141-342 R150C): as the sequence (P26368 141-342 R149W) above, with W9R, R10C counted along it
Sequence of U2AF2 12L WT (P26368 141-342): as the sequence (P26368 141-342 R149W) above, with W9R counted along it
Sequence of U2AF2 12L Arg150His (P26368 141-342 R150H): as the sequence (P26368 141-342 R149W) above, with W9R, R10H counted along it

B1: nine-uridine consensus Py tract RNA (ssRNA)
RNA: UUUUUUUUU
Q: Which results are given for B1?
A: binding result [1]: binds; binding signal [2]: ~4 fold decrease in affinity vs WT; binding signal [3]: ~5 fold decrease in affinity vs WT; binding signal [4]: ~3 fold decrease in affinity vs WT
